Molecular target: Gal-CBP1-2441 chimera (yeast) (UniProt P45481)
Assay: cell-based or functional assay

“SRCAP1275-2971 (from UniProt Q6ZRS2 1534-3230)” gave an ability of Gal-CBP to activate transcription of pGal-CAT of 2.5 fold.

From patent US6365372
